The results in this text go back to FireProtDB (doi:10.1021/bi981698k).

For this data set the following is noted: Saccharomyces cerevisiae (strain ATCC 204508 / S288c), 25 °C, GdnHCl, CD, NaCl 40 mM.
Setting [1] is: pH 4, acetate-HCl 20 mM, structure 1YCC.
The mark [2] stands for this setting: pH 5, acetate-HCl 20 mM, structure 1YCC.
Where [3] appears, read: pH 5.8, MES 20 mM, structure 1YCC.
Where [4] appears, read: pH 6.12, MES 20 mM, structure 1YCC.
Setting [5] is: pH 6.5, MES 20 mM, structure 1YCC.
Setting [6] is: pH 7.2, Tris 20 mM, structure 1YCC.
Where [7] appears, read: pH 7.5, Tris 20 mM, structure 1YCC.

Cytochrome c isoform 1 wild type, P00044, sequence (P00044 whole entry, canonical isoform): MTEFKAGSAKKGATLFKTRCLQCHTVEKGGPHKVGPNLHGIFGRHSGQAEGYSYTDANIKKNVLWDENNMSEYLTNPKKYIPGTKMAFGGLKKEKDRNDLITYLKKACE
Cytochrome c isoform 1 K79H, P00044, sequence (P00044 whole entry K79H, canonical isoform): as the sequence (P00044 whole entry, canonical isoform) above, with K79H counted along it

For the substance Cytochrome c isoform 1 K79H, P00044, the denaturant m value was 3.33 kcal/mol/M under setting [1]; 3.67 kcal/mol/M under setting [2]; 3.54 kcal/mol/M under setting [3]; 3.31 kcal/mol/M under setting [4]; 3.14 kcal/mol/M under setting [5]; 2.97 kcal/mol/M under setting [6]. The substance further registered a denaturant m value under setting [7] of 3.2 kcal/mol/M. Further, the “denaturant midpoint (higher = more stable)” value (from here on “denaturant midpoint”) was 0.51 M under setting [1]; 0.98 M under setting [2]; 1.05 M under setting [3]; 1.09 M under setting [4]; 1.12 M under setting [5]; 1.15 M under setting [6]. Moreover, the “denaturant midpoint” value under setting [7] stood at 1.15 M. Besides, the unfolding free energy reads like this: under setting [1], 1.71 kcal/mol; under setting [2], 3.6 kcal/mol; under setting [3], 3.7 kcal/mol; under setting [4], 3.6 kcal/mol; under setting [5], 3.52 kcal/mol; under setting [6], 3.41 kcal/mol. In addition, under setting [7], the unfolding free energy stood at 3.68 kcal/mol.
In the case of “Cytochrome c isoform 1 wild type, P00044”, the denaturant m value runs as follows: (pH 4, acetate-HCl 20 mM) 4.1 kcal/mol/M; (pH 4.5, acetate-HCl 20 mM) 4.28 kcal/mol/M; (pH 5, acetate-HCl 20 mM) 4.42 kcal/mol/M; (pH 5.8, MES 20 mM) 4.84 kcal/mol/M; (pH 6.12, MES 20 mM) 4.86 kcal/mol/M; (pH 6.5, MES 20 mM) 4.45 kcal/mol/M. For the same substance, the denaturant m value reads like this: (pH 7.2, Tris 20 mM) 4.31 kcal/mol/M; (pH 7.5, Tris 20 mM) 4.92 kcal/mol/M. Further, the “denaturant midpoint” value runs as follows: (pH 4, acetate-HCl 20 mM) 0.66 M; (pH 4.5, acetate-HCl 20 mM) 0.96 M; (pH 5, acetate-HCl 20 mM) 1.08 M; (pH 5.8, MES 20 mM) 1.09 M; (pH 6.12, MES 20 mM) 1.16 M; (pH 6.5, MES 20 mM) 1.23 M. Moreover, the “denaturant midpoint” value by setting is: (pH 7.2, Tris 20 mM) 1.09 M; (pH 7.5, Tris 20 mM) 1.15 M. The unfolding free energy stood at 2.72 kcal/mol (pH 4, acetate-HCl 20 mM); 4.11 kcal/mol (pH 4.5, acetate-HCl 20 mM); 4.77 kcal/mol (pH 5, acetate-HCl 20 mM); 5.28 kcal/mol (pH 5.8, MES 20 mM); 5.66 kcal/mol (pH 6.12, MES 20 mM); 5.44 kcal/mol (pH 6.5, MES 20 mM). Moreover, the unfolding free energy stood at 4.68 kcal/mol (pH 7.2, Tris 20 mM) and 5.66 kcal/mol (pH 7.5, Tris 20 mM).
